Test results from IntAct's records for PubMed 9847329.

B1: Protein Rep68 (Adeno-associated virus 2 (isolate Srivastava/1982)), P03132 (parent)
chain: MPGFYEIVIKVPSDLDGHLPGISDSFVNWVAEKEWELPPDSDMDLNLIEQAPLTVAEKLQRDFLTEWRRVSKAPEALFFVQFEKGESYFHMHVLVETTGVKSMVLGRFLSQIREKLIQRIYRGIEPTLPNWFAVTKTRNGAGGGNKVVDECYIPNYLLPKTQPELQWAWTNMEQYLSACLNLTERKRLVAQHLTHVSQTQEQNKENQNPNSDAPVIRSKTSARYMELVGWLVDKGITSEKQWIQEDQASYISFNAASNSRSQIKAALDNAGKIMSLTKTAPDYLVGQQPVEDISSNRIYKILELNGYDPQYAASVFLGWATKKFGKRNTIWLFGPATTGKTNIAEAIAHTVPFYGCVNWTNENFPFNDCVDKMVIWWEEGKMTAKVVESAKAILGGSKVRVDQKCKSSAQIDPTPVIVTSNTNMCAVIDGNSTTFEHQQPLQDRMFKFELTRRLDHDFGKVTKQEVKDFFRWAKDHVVEVEHEFYVKKGGAKKRPAPSDADISEPKRVRESVAQPSTSDAEASINYADRLARGHSL

Variants of: B1
Settings: with tcp4_human SUB1, P53999

Variant	effect of a mutation on the interaction
K340H	disrupting interaction
